The target of assay [1] is T1, MASP2 in human serum (human, UniProt O00187 16-686). The assay can be described thus: cell-based or functional assay.
The target in assay [2] is T1, MASP2 in human serum. The assay can be described thus: cell-based or functional assay. This is another data set of the same source.
Assay [3] has as its target MASP2 in mouse serum (mouse, UniProt Q91WP0 20-685). The assay can be described thus: cell-based or functional assay.
The target in assay [4] is MASP2 in monkey serum (monkey). The assay is described as follows: cell-based or functional assay.
The target in assay [5] is Murine MASP2A (S632A) protein (murine, UniProt Q91WP0 16-685). The assay can be described thus: SPR (Biacore 8K), antibody captured on anti-human Fc chip, antigen as analyte, 1:1 fit. The method, then: The binding properties of the anti-MASP2 antibodies were determined by the method of Biacore. […] An anti-human Fc IgG capture chip was used to capture the antibodies, then antigens with different concentrations were used as a mobile phase for the determination, and finally curve fitting was performed according to a 1:1 mode to obtain affinity values.
Murine MASP2A (S632A) protein, sequence (Q91WP0 other isoform, or with tags, fused parts or gaps S632A S632A): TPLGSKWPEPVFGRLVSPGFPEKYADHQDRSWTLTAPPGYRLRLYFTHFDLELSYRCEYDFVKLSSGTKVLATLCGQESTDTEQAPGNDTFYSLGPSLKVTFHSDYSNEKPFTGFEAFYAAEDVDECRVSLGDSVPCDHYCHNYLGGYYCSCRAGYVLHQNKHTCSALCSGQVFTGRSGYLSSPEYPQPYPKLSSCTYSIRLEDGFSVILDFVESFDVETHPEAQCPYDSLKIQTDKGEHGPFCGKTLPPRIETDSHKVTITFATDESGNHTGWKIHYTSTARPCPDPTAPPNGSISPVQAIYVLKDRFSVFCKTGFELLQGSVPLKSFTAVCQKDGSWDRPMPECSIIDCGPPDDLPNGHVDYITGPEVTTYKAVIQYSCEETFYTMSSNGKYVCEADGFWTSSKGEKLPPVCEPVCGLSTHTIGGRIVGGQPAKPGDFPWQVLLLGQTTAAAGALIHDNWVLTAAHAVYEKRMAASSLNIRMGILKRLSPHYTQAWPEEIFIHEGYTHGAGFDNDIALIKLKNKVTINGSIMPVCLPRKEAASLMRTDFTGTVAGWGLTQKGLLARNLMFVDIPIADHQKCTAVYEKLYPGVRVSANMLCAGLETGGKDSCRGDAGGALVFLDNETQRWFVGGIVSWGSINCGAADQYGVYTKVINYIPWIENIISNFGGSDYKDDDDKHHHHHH

T1 sequence (O00187 16-686 limits assumed): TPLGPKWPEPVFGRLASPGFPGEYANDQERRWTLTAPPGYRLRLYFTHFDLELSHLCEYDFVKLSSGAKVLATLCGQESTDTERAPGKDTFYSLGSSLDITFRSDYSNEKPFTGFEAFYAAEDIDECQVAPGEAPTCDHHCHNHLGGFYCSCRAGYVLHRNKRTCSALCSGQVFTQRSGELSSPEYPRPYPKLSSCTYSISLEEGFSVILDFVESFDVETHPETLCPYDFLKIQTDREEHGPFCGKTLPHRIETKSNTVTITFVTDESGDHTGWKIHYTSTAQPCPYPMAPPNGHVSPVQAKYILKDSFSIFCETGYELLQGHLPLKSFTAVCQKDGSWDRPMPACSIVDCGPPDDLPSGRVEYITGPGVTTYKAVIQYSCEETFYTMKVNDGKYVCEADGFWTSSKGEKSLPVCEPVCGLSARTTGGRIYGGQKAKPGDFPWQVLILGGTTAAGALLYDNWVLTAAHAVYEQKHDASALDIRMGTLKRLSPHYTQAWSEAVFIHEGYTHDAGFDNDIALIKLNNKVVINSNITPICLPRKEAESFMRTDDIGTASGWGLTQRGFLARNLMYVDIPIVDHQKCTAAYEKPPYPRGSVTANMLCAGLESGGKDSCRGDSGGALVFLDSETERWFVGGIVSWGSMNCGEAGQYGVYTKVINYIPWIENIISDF
MASP2 in mouse serum, sequence (Q91WP0 20-685 limits assumed): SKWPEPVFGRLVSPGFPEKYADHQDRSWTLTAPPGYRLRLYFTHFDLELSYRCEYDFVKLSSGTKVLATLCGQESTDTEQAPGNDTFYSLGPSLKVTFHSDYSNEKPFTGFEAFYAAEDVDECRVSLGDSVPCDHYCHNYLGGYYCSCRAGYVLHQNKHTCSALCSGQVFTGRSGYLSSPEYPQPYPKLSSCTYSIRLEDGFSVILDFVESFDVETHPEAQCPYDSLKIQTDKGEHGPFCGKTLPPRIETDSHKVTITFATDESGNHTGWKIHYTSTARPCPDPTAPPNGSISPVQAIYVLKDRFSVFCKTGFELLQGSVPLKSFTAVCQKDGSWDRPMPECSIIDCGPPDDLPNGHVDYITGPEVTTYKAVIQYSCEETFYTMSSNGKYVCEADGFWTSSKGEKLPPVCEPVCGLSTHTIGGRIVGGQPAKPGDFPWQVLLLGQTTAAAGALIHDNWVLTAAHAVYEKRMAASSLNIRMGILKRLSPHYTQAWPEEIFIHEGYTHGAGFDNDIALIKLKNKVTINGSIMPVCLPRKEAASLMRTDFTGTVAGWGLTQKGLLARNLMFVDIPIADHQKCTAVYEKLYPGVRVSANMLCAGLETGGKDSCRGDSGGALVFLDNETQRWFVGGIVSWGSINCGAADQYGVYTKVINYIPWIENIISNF

B1: 11165 (antibody, human IgG4 S228P, lambda, V domains shown)
VH: QVQLQESGPGLVKPSETLSLTCTVSGGSISSGEYFWGWIRQPPGKGLEWIGSIYYSGSTYYNPSLKSRVTISVDTSKNQFSLKLSSVTAADTAVYYCARSLKAARRDAFDIWGQGTTVTVSS
VL: QSVLTQPPSVSVSPGQTASITCSGHKLGDKYAYWYQQKPGQSPVLVIYQDTKRPSGIPERFSGFNSGNTATLTISGTQATDEADYYCQTWDSSTGVFGAGTKVTVLG
notes: Fully human antibody from phage display; Full-length human IgG4 (S228P), lambda light chain
With B1, the “IC50 (µg/mL), inhibition of the lectin pathway in 1% human serum (C4c deposition on mannan)” value in assay [1] was found to be 0.499 µg/mL. Further, in assay [2], the “90% human serum IC50 (µg/mL), inhibition of the lectin pathway (C4c deposition on mannan)” value was determined as 0.93 µg/mL. In addition, the “90% mouse serum IC50 (µg/mL), inhibition of the lectin pathway (C4c deposition on mannan)” value in assay [3] came to 4.26 µg/mL. In addition, in assay [4], the “90% monkey serum IC50 (µg/mL), inhibition of the lectin pathway (C4c deposition on mannan)” value is 21.1 µg/mL. Also, in assay [5], the affinity, expressed as Kd, was 0.435 nM; the koff worked out at 0.00192 s⁻¹; the kon was found to be 4.41e+06 M⁻¹ s⁻¹.

The record behind these values is patent US20240209114A1 (JIANGSU HENGRUI PHARMACEUTICALS, published 2024).
